Assay: soluble on expression in E. coli; label from the status in PepcDB or PDB records

Sequence | soluble on expression in E. coli
MGSDKIHHHHHHMVVNMFEDIDTFEEAFNKLLREVLEFDLQNPFKDAKKVLCIEPHPDDCVIGMGGTIKKLSDMGVEVIYVCMTDGYMGTTDESLSGHELAAIRRKEEEESARLLGVKKIYWLNYRDTELPYSREVRKDLTKILRKEQPDGVFAPDPWLPYESHPDHRRTGFLAIESVAFSQLPNFSNTDLDIGLNPYNSGSFIALYYTHKPNYIVDITDLMELKLKAIRVHRSQFPDDIWEKWEPFLRTIAMFYGEKIGVRYGEGFRIMPGLFYHITPFTDLI | not soluble
MSLAQNSSIDYPSYQKRNTDALEISRIVRNDTATILYMDAYSRPNYWIRLASELSLHGVQSGKKYPVIRSQGFELDKQVYMPASGNVTFTLQFAPIDPQDRTIDFVESNNEEDFRIEGICLDASVPKKKVHCHLAGKMANRPQTSRLILIESNKNTRGTPWISIPVRNGVFEYDFYTDHEKAYELICWDDLLNGCWYPVTFFAENGTVSFTISAIDARPPYRIETLNSLTTALRLFEAEGKDKFSFDELNARRDTLEKYGRFESEAMQALWKKFDQVKDNPEERNKLFRERDRLEESGEAFTKEAKALIKEREQLFRKKVIWETEQASQHPSLVGLFILKMKVENARKDEDVTPYLEAFQKVYASRYPEHPYTREMQMFIDNNQPKTGNRFIDFSAPDLNGNMVQLSEQIRGKVALIDLWASWCGPCRTTSKQLIPIYEKYKDRGFTVIGVAREQNSDIRMREAIRKDGYPWLNLIELNDVQQIWSKYRIPNAAGGTFLVNAQGIILAVNPTAEEVERILQKELEGHHHHHH | soluble
MSDGQYGPISAGIIRSITDKSYERRKAAALDVEKLVRDLFNNNQLSQLDKCLSVLGELINSGNSNQRKGGLIGMAAASIALGNKNAPPYTAKLVEPIIPCFHDADLQIRYYACESLYNIAKICKTSVLAHFEDIFDVLWRVTADSDQNVRGGAELLNRLITEIVLSEQEFDIAILMSLIRDRIYTQTSSNRRFILEWLNTIDSAPFFSFCNYISEISDGLFKMLGEQAPAVRDLCETVLGNFLTAIRSKPESLSLEDRIQMINVLVVHTHENEPFLARKLSLIWLEEFVKLYKTDLLVMLSTCLVGILPSIVETELKADAVNRLLMALVGEAKLEQDILDKTIEVLLKYIKYDVVETRVTVLNWIRHLHSSMPGQLFVHMHQIFPVLLNTLSDTSDEVLLLDLFLISNICQSESAPDQVDVSTFGLNETELKQVSHISPFLIKFVLSLLEMFRTEPTLLRERGVLIIRQLCLLLEPAHIYRVICVLLERESKHNFAQEMVSTLHGVLLTATELFILRDELRALSNESSRSLFECIFRVWSNRPIALLGLCLLSQHYQQAADIALLLSQVDITVDVLLEIDKLVNLVESPVLAYVRMDLLSSIHRPPLCTVLSALLMLLPQSEAFVTLHKRLQAVPALVSIDNSPYAPKVPPCRIDFPPLMLHFKAALARRQTEVRSRHRDLLSGVVTQMKNVKI | not soluble
MFSIIIPIYNSENYLRYSIESVLNQSIGFKENIELILIDDGSVDSSPQICESFKNLYPNNIKIMKIENSGPSAARNCGLSNVSERSKFIGFLDSDDAFSQNALQSVYDFFCDSEHVNIAVLPVYYTGEKEGGHKLNNRFEKGTRVINILNDYKAIHFYIGGTFYRRHTLTSTVLFDESIKFWEDAIFFNQLLLKEKRYGAVAEGKYFYRKRKEQDSLVDRSWFNKKRYTYLLNECYMTLLMDSFNKYDIVLPYLQFLIVYHIKLFLYPNYRDVYKSVLDQQEQRVFVDDFIKVLKFIDPQFIKEQDMPMYYKEFMFHLLKENTEALENIKKERVLHSSCTVTSAKIKGLRLELTGHFINQYYEMKENDRIYIKYFKRLKKCKRKELKKTIEVWGYKLRDFRYAGFVVEIPIWAFAFDFVLKTPNDSLELNHVNIFKSLLTRVFKKRLEHHHHHH | soluble
MGSDKIHHHHHHMKRKINYTHIAEPTVFENVFPTYLTNETMMARKQKVLQRMETEKFDQLVFYADKEHGSNFEYLTGFIPRFEEGLLVLNKDGAATLILGNENLKLCQHARISADLIHYLAFSLPNQPMAGEQKLSQIFETLLDETAQKIGIVGWKMFTTQQQEPATMFDVPHFIVEALKKALPKEARLLNGTHLLIGAKGARATNNANELAHYEYGANLASRSMLKALNAIEIGQRETDIGALLNDEGQTPTVVTIAATGQRFEYANMYPTAKEIQLGDALSLTTGYKGGLSSRTGFVIENEQQLPEAQRDYLERVAKPYFQAVVHWLETIRIGLLGREMYQAIEEQLPKEIYHWHLNPGHLVSDDEWMSSPIYPDSAIRLESGMLFQVDIIPSVPGYTGVSAEECVALADETLQKEIQQTYPDMWQRIATRKAYLKETLKLDLPSEVLPMSNLVGYLRPFYLAKDKALCVEKPALK | not soluble
AHHHHHHGSKIKVGINGYGTIGKRVAYAVTKQDDMELIGVTKTKPDFEAYRAKELGIPVYAASEEFLPRFEKAGFEVEGTLNDLLEKVDIIVDATPGGMGEKNKQLYEKAGVKAIFQGGEKAEVAQVSFVAQANYEAALGKDYVRVVSCNTTGLVRTLNAIKDYVDYVYAVMIRRAADPNDIKRGPINAIKPSVTIPSHHGPDVQTVIPINIETSAFVVPTTIMHVHSIMVELKKPLTREDVIDIFENTTRVLLFEKEKGFESTAQLIEFARDLHREWNNLYEIAVWKESINVKGNRLFYIQAVHQESDVIPENIDAIRAMFEIAEKWESIKKTNKSLGILK | soluble
SSNAKFDQFSSDFQTFNAKFDQFSNDMNAFRSDFQAFKDDFARFNQRFDNFATKYR | soluble
MGSDKIHHHHHHMRKMRVLAIGNVFNPSGVSVHIINVLKELVKMGDEVFLYVPSFLVRRNYEVLKDLENAHISVHHSVYETKEAEEVGTLPYFIRSHTVYLRWNNLGEDRKYIDELKDIKPDVIYDMHEDSITLRLSYHIAKRLNKPLVKLLHDEPFRNSFGRGYRKFLGIKGLAYDTLMWMFYKFDKRAFLRSINDGILRGIAGVSKAPFYLSGIEEIAHSVRLKVYEVGNAFNKDIIYKYRRTRGKEDYAVFFARLVPQKGIKELPKIADLLDSKIVVFGKIFNENDRSILMSHPKIEYKGYRPIEEVYNTVAKAKVLIYPSHQDGFSLVVLDTLALGTSVVAYDIPAIRFVFSSLKPVRTVREYDIKEMASTANSILRMKDEEYESEHEDEKVKKFLELHSSWANVAKETHDFLSAFL | not soluble
PNFSEGSSSTESTVRVKHKIEKTTQKLSETVRPRDMFIHDDGAHYKVDDNALYEEIWSDLPHWDVKGIKDISDQYDKAGFKSWFYGIGGSEAKLDLQFSDTIPIDIFQTLFKWSNQSFEYSSFDHILIPFNETKANKKIYLVSYSKQLILEVTVESANYRNIMNDLKNRQSNMPAFSLFSIGSKKEFLLPNKPLTMDKKEFVTESIKTNTFKQALFSDPSIVREDSNYNNRNVLTDGISRLDVNLSQRQVQFQQRNLVQSTSYQTGELIKKSQKYLEDTGSWTDHYQFFNINDSQQLSFYIFMDQIPVINSTAKPFGATSAITVQWANDDILSYKRPNYSLGTNPIKTSETELMGGSEVKMLLSKQTAYDTDKIDQIFLAYQLVSTSTNDDPLVELEPVWAMKVNGKIVPITKDLLRKEGANSGVE | soluble
MKFIHLTDIHLMPPGQSVSGSDPIEKLSKVFEDIATWHSDAEFCVVSGDLADLGDRESYEWLRQRLAHFPVPVFLMLGNHDVRETFISVFPDHPRDANGFIQHAHTAGGARFLFLDTLTGGPDIHDGELCNDRLAWFAAELERAGDMPVYVFLHHPPFDIAIPYVDEIKLRQPDAFHAALQAGRNIRHIFYGHVHRTTYVNWRGYPFTSLPSTNHQVPLIPEREGQEHSAEPLAYGVATIEGDQFTLHVDHYLGK | not soluble
MLFRVRSETDSQPPFACLNDIKLFDTDNIGRGINAAILNGTTGDIIEKATFDVTASDEKLMTWLLKVPHASLLVAASFGDVAEHVSRQSRQLFAAFGAQKIDNWRVGNAYAIIGQRGIRRGEAHETVAKFLEENTQQKLFEGCFDLPIAEIGGEVELKIDGPPVHRADESKLAELGAFEADLLQQNKDVEYGGKWKNCGMDRPCNEADTIPVHFFSGEHKDDHPKMCIGGRMLFDKDLNSAGRGLNLAMLEPKTGKVTAVAHFDTYEDESHGLEEWLDAVPTGYIVAVVSFDEASNQLSDMARRIFYEMGSSMIDRLKFRASWYFVGQKGIGAYTPFEDLNIPQGNNWANPIHTSFCLPKSLHKWAGRRDTSSSMTSSASNDVRNLPKRHFCAKYDRHEEFCGAANLDSPIMPRHLSDEQRSSDAIFNVPILVASGLAPDSLRITLESLLNQEGLNTQMVLVTYDKEYSENADLVSLFHVKSVAIQSNGSYNGRKTSWKSEEIAENPMKIDRKPPGGLGNQKFVFLGHQFF | not soluble
MGSDKIHHHHHHMNITSKLNQIIQECLVNRDSDLFIMPRFDKYQLLYRDAGGYRKSALIDRDEAEQIMMYIKYRADMGISERRRPQSGAMTWLNRQGELVNLRISTVGDFLDRPSMVIRFIYVLKQDEHILDSESMEKIQLATKLRGLMVFSGPMGSGKTTLIYEVARKLSETKMVMSIEDPVEIREHNFLQLQVNEKSGMSYQELLKNGLRNRPDVFIIGEIRDGKTAEIAIQAALSGHLVLTTVHSKSTQGVWNRIVELGVREEHLKEALTAVIYQRMIPAKVGDLKIMAEIKSFHPALKGTKKKWRERLEEWKESGQITKEVFEDFQYG | not soluble
MSLDKVYPIGSQYTINGFIIGDDTTENGYPITAKIEVVDTKNTISPKLIAHTIPLNNVKINGNNRLTSNRDLAIKEIISWDVSQQLYNYRDTYGLSTEGYTRSDGWDSPETKLKGHGSGHYMSALALAYAAATNPSHKEILRRNITRMVNELRECQERTFVWSEELGRYLEARDFAPEEELKKMKGTWEAFDEHKTKWATYGYGYLNAIPPHHPALIEMYRAYNNSDWVWAPYYSIHKQLAGLIDIATYMDDKSIADKALLIAKDMGLWVWNRMHYRTYVKKDGTQEERRTHPGNRYEMWNMYIAGEVGGMGESLARLSEMVSAPEEKARLIEASNCFDSPAFYEPLSKNIDDIRNRHANQHIPMIIGALRSYLSNNDTFYYHVSHNFWNLIQGRYRYSTGGVGNGEMFRQPYTQIVSMAMNGVSEGESHSNPHINETCCAYNLLKLTKDLNCFNPDDARYMDYYERTLYNQIIGSLHPEHYQTTYQYAVGLNASKPWGNETPQSTCCGGTGSENHVKYQEATYFVSDNTLWVALYMPTTLHWEEKNITLQQECLWPAKSSTIKVTAGEARFAMKLRVPYWATDGFDVKLNGISIATHYQPCSYAVIPTRQWKENDIVEITMPFTKHIDYGPDKLPAEIASKDGHQLETAWVGTLMHGPFAMTATDITNWTEATLNIDSRLASITVVEPNGPQTGTTGNLYTLMQGGRTFQPDYYRHDHTTHYFRINHIKDPTVELKMALSAKLRETTAFSKSHYTKASFAKLTTAIQEGEKLMKISPLTETTISTCVDNIDKAIESLVASRLDKSNLEASIHIAKKCNPDLYTTDSFKTLQATLESAHEVMDNIDLQTVIDKQTLSLQDATASLVLANNVDKTELKELLNIAMERQTNQEKWNALAVKIPEFAPWAHFGFTRLKRTLEHAQNVYFNKDKNYSQGEVNAIVASLNTVINTMRPGNLPEMEDLRPLSALLRRVGTIDDSTDPTLKDAVAFTEMVIKYVADGSGTHDMIETAISRLKSAAGEGHHHHHH | soluble
GDAAKGEKEFNKCKTCHSIIAPDGTEIVKGAKTGPNLYGVVGRTAGTYPEFKYKDSIVALGASGFAWTEEDIATYVKDPGAFLKEKLDDKKAKTEMAFKLAKGGEDVAAYLASVVK | soluble
PNILRGLLLGYSEKMVELEHKVEVMQPTIDAFDRIATANGSLCLTDAAKALQMRPKDFISFLSQKQWIYKRTGSAHYVGYQDKVQAGFLEHKVTEVTRGDGSNKITEQVRVTPKGLTRLSKLLGNNHV | not soluble
MDLDKLVHQPTRLELFAYLYRHGESSFGDLTDELDLTEGNLSSHLQRMEDADAVEVRKEFVDKRPHTTAVLTEDGEAMFEDHVQTLQGLIDGLELEHHHHHH | not soluble

Source: the DeepSol protein solubility set
